pKd: −log10 of the molar value.
Experiments:
[1] = molecular target: T1, partial ACTH peptide (positions 1 to 24 of ACTH) (Homo sapiens, UniProt P01189); experiment: Turbidity (OD550) measurement and Hill plot analysis of albumin reagents mixed with partial ACTH peptide; format: binding
T1 construct: consisting of the amino acids of positions 1 to 24 of ACTH
Description: BSA (Sigma-Aldrich) was dissolved in Milli-Q® water (Millipore) to prepare a BSA solution (1.0 w/v %). The BSA solution was divided into two and one was designated as a non-denatured BSA solution and the other was autoclaved at 110° C. for 15 minutes to obtain a heat-denatured BSA solution.
A partial ACTH peptide (Peptide Institute, Inc.) consisting of the amino acids of positions 1 to 24 of ACTH was used as the basic peptide of interest. The peptide was dissolved in ultrapure water to prepare a sample containing the basic peptide of interest (1.0 mg/ml).
The heat-denatured BSA solution prepared in the above (1) (50 μl) was mixed with the sample prepared in (2) followed by addition of ultrapure water to prepare a total volume of 250 μl of a mixed solution (final concentration of heat-denatured BSA: 0.2 w/v %). In this preparation, the sample was mixed so as to obtain a final concentration of the partial ACTH peptide in the mixed solution of 0 to 150 μM. A comparative mixed solution was also prepared in the similar manner except that the non-denatured BSA solution was used instead of the heat-denatured BSA solution.
The thus-prepared mixed solutions were measured for absorbance at the wavelength of 550 nm (OD550) in a spectrophotometer UV-2500PC (Shimadzu Corporation). The obtained results were subjected to Hill plot analysis with KaleidaGraph (HULINKS, Inc.) to calculate the values of Kd and the Hill coefficient of heat-denatured BSA and non-denatured BSA.
BSA (Sigma-Aldrich) was dissolved in Milli-Q® water (Millipore) to prepare a BSA solution (1.0 w/v %). The BSA solution was divided into five aliquots among which one was designated as a non-denatured BSA solution (heat denaturation period: 0 min) and the rest of four were heated in an autoclave at 110° C. for 5, 15, 60 and 120 min, respectively, to obtain heat-denatured BSA solutions.
The Kd value and Hill coefficient of BSA at respective heat denaturation periods were calculated. […]
The Kd value and Hill coefficient were calculated for the mixed solutions. […]

[2] = molecular target: T2, partial ACTH peptide (Homo sapiens, UniProt P01189); experiment: OD550 Hill plot analysis in serum-based solution versus control solution; format: binding
T2 construct: consisting of amino acids of positions 1 to 24 of ACTH; purchased Biologica Co
Description: The peptide was dissolved in ultrapure water and mixed with serum collected from a healthy volunteer in USA (person) (SUNFCO) to prepare the serum-based sample containing the basic peptide of interest. The serum-based samples were prepared so as to adjust the final concentrations of the partial ACTH peptide and serum as shown in (3) below.
The denatured BSA solution prepared in the above (1) (50 μl) was mixed with the sample prepared in (2) followed by addition of ultrapure water to prepare a total volume of 250 μl of mixed solution containing serum (hereinafter referred to as “serum-based solution”). In the preparation, the serum-based sample was mixed so as to adjust a final concentration of the partial ACTH peptide of to 0 to 80 μM and adjust a final concentration of serum of to an equivalent to 100-fold dilution in the mixed solution. For a control, a mixed solution was also prepared without serum (hereinafter referred to as “control solution”).
The thus-prepared mixed solutions were measured for absorbance at the wavelength of 550 nm (OD550) with a spectrophotometer UV-2500PC (Shimadzu Corporation).
OD=(peptide concentration)^n/[(peptide concentration)^n+[Kd×(1+CHSA/Ki)]^n]

[3] = molecular target: T2, partial ACTH peptide; experiment: OD550 detection of basic peptide concentrated by OFFGEL fractionation from serum-containing specimen; conditions: Heat-denatured BSA: Yes; concentrated partial ACTH peptide fraction after OFFGEL fractionation, MES-HCl buffer pH 5.0
Description: A partial ACTH peptide consisting of amino acids of positions 1 to 24 of ACTH (Biologica Co.) was used as the basic peptide of interest. The peptide was dissolved in ultrapure water and mixed with serum of a healthy USA subject (SUNFCO) to prepare an actual serum sample containing the basic peptide of interest. The sample was prepared so as to obtain the concentrations of the partial ACTH peptide and serum as shown in (3) below.
(3) Preparation of sample solution containing concentrated basic peptide of interest. A glycerol solution (Agilent technologies; 6 ml) and an OFFGEL Buffer solution (Agilent technologies; 600 μl) were mixed followed by addition of ultrapure water to prepare a total volume of 50 ml of peptide buffer solution (×1.25), the pH of which is 3-10. This solution was mixed with the sample of the above (2) to prepare a peptide buffer solution (×1) with the concentration of 20 μM of the partial ACTH peptide and the concentration equivalent to 1000-fold dilution of serum. This solution was fractionated with using a High Resolution IPG gel for fraction whose pH is pH 3-10 on the OFFGEL fractionator (Agilent Technologies). […]
The thus-prepared mixed solutions were measured for absorbance at the wavelength of 550 nm (OD550) in a spectrophotometer UV-2500PC (Shimadzu Corporation).

[4] = molecular target: T2, partial ACTH peptide; experiment: Detection capacity (turbidity, OD550) at various final concentrations of reagent for detection; parameters: key: “Y” denotes turbidity appearing; “N” does the absence of turbidity
Description: BSA (Sigma-Aldrich) was dissolved in ultrapure water to prepare a BSA solution (5.0 w/v %). The BSA solution was heated in an autoclave at 115° C. for 15 minutes to obtain a heat-denatured BSA solution.
A partial ACTH peptide consisting of amino acids of positions 1 to 24 of ACTH (Biologica Co.) was used as the basic peptide of interest. The peptide was dissolved in ultrapure water to prepare a sample containing the basic peptide of interest (1.0 mg/ml).
The heat-denatured BSA solution prepared in (1) was mixed with 30 μl or 60 μl of the sample prepared in (2) followed by addition of ultrapure water to prepare a total volume of 250 μl of mixed solutions. In the preparation, the reagent for detection (solution of heat-denatured BSA) was mixed with the respective samples so as to obtain a final concentration of the reagent for detection in the mixed solution of 0.1 to 5%.
The thus-prepared mixed solutions were measured for values of absorbance at the wavelength of 550 nm (OD550) with a spectrophotometer UV-2500PC (Shimadzu Corporation). The results obtained are summarized in Table 6, where “Y” denotes turbidity appearing and “N” does the absence of turbidity.

[5] = Example 1, final BSA 0.2 w/v %, peptide 0 to 150 μM, OD550 Hill plot
[6] = Nucleic acid: Yes (salmon sperm DNA, final 10 μM)
[7] = heat denaturation period 5 min at 110° C.
[8] = heat denaturation period 15 min at 110° C.
[9] = heat denaturation period 60 min at 110° C.
[10] = heat denaturation period 120 min at 110° C.
[11] = Control solution (without serum)
[12] = Serum solution (serum equivalent to 100-fold dilution)

T2 sequence (P01189 138-161): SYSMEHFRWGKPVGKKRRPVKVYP

Substance: Heat-denatured BSA: BSA solution (1.0 w/v %) in Milli-Q water autoclaved at 110° C. for 15 minutes; reagent for detection
- Hill coefficient n [1, 5]: 8
- pKd [1, 5]: 4.52
- Hill coefficient n ([1]; Nucleic acid: No): 11
- pKd ([1]; Nucleic acid: No): 4.40
- Hill coefficient n [1, 6]: 8
- pKd [1, 6]: 4.52
- change in OD550 with increasing partial ACTH peptide concentration ([1]; albumin reagent mixed with partial ACTH peptide): increased in a concentration dependent manner
- Hill coefficient n [1, 7]: 5
- pKd [1, 7]: 4.48
- Hill coefficient n [1, 8]: 8
- pKd [1, 8]: 4.52
- Hill coefficient n [1, 9]: 6
- pKd [1, 9]: 4.55
- Hill coefficient n [1, 10]: 4
- pKd [1, 10]: 4.48
- Hill coefficient n [2, 11]: 4
- pKd [2, 11]: 4.60
- Hill coefficient n [2, 12]: 3.4
- pKd [2, 12]: 4.54
- OD550 [3]: 0.03
- Detection capacity (in the case of 30 μM peptide) ([4]; final conc. of reagent 0.1 %): Y
- Detection capacity (in the case of 60 μM peptide) ([4]; final conc. of reagent 0.1 %): Y
- Detection capacity (in the case of 30 μM peptide) ([4]; final conc. of reagent 0.2 %): Y
- Detection capacity (in the case of 60 μM peptide) ([4]; final conc. of reagent 0.2 %): Y
- Detection capacity (in the case of 30 μM peptide) ([4]; final conc. of reagent 0.4 %): Y
- Detection capacity (in the case of 60 μM peptide) ([4]; final conc. of reagent 0.4 %): Y
- Detection capacity (in the case of 30 μM peptide) ([4]; final conc. of reagent 0.5 %): Y
- Detection capacity (in the case of 60 μM peptide) ([4]; final conc. of reagent 0.5 %): Y
- Detection capacity (in the case of 30 μM peptide) ([4]; final conc. of reagent 0.7 %): Y
- Detection capacity (in the case of 60 μM peptide) ([4]; final conc. of reagent 0.7 %): Y
- Detection capacity (in the case of 30 μM peptide) ([4]; final conc. of reagent 1.0 %): Y
- Detection capacity (in the case of 60 μM peptide) ([4]; final conc. of reagent 1.0 %): Y
- Detection capacity (in the case of 30 μM peptide) ([4]; final conc. of reagent 5.0 %): Y
- Detection capacity (in the case of 60 μM peptide) ([4]; final conc. of reagent 5.0 %): Y
